Target: T1, human GIP receptor (human, UniProt P48546 22-466)
T1 sequence (looked up): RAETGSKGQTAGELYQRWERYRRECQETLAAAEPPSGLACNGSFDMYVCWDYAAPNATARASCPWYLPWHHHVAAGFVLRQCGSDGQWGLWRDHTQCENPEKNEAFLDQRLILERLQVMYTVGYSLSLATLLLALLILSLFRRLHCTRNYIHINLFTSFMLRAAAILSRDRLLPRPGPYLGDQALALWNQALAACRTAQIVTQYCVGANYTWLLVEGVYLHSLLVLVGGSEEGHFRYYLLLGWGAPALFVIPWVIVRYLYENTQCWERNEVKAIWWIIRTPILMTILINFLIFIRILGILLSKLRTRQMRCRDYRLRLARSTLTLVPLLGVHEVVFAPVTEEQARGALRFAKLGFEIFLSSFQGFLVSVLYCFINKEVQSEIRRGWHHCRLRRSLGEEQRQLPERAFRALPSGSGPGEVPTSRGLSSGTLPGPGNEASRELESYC
Experiment: cell-based or functional assay

B1: P007 (peptide)
peptide: YXEGTXTSDYXIXLDKQAQAEFVKWLLKGGPSSGAPPPSK
modifications: Aib at 2; αMePhe at 6; Aib at 11; Aib at 13; K at position 24 ε-amino conjugated with ([2-(2-amino-ethoxy)-ethoxy]-acetyl)2-(γ-Glu)1-CO-(CH2)16-CO2H; C-terminal primary amide
EC50 value (ratio: EC50 of endogenous ligand / EC50 of test compound), LANCE Ultra cAMP assay, HEK293/GIPR cells: 1.15 ratio

Reference: patent EP4813403A1 (Hangzhou Zhongmeihuadong Pharmaceutical Co., Ltd., dated 2025)
